In patent US20220251228A1 (SHANGHAI HANSOH BIOMEDICAL, published 2022):

T1: human BCMA on NCI-H929 tumor cells (human, UniProt Q02223 1-184)
T1 sequence (looked up): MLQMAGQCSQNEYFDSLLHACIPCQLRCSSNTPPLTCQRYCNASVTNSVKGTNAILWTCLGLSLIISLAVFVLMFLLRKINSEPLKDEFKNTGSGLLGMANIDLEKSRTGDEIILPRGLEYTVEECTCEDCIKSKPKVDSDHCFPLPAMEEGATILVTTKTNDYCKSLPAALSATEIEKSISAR


target: T1, human BCMA on NCI-H929 tumor cells; experiment: cell-based or functional assay

Endocytosis efficiency % (0.5 hour) [%] | Endocytosis efficiency % (2 hours) [%] | Binder
36.7 | 48 | humanized anti-BCMA antibody Ab2 (antibody, human IgG1, kappa, V domains shown) VH: QVQLVQSGAEVKKPGASVKVSCKASGYSFSDYEMHWVRQAPGQGLEWIGGIHPGSGGSAYNQKFKGRVTLTVDKSTSTAYMELSSLRSEDTAVYYCTRLDYGYSWAWFPYWGQGTLVTVSA VL: EIVLTQSPATLSLSPGERATLSCSASSSVIYMNWYQQKPGQSPKIWIYGISNLASGVPARFSGSGSGTDFTLTISSLEPEDFAVYYCQQRSSYPLTFGGGTKVEIKR
35.5 | 45.7 | humanized anti-BCMA antibody Ab3 (antibody, human IgG1, kappa, V domains shown) VH: QVQLVQSGAEVKKPGASVKVSCKASGYSFSDYEMHWVRQAPGQGLEWIGGIHPGSGGSAYNQKFKGKATLTVDKSTSTAYMELSSLRSEDTAVYYCTRLDYGYSWAWFPYWGQGTLVTVSA VL: EILLTQSPATLSLSPGERATLTCSASSSVIYMNWYQQKPGSSPKIWIYGISNLASGVPARFSGSGSGTSFTLTISSLEPEDFAVYYCQQRSSYPLTFGGGTKVEIKR
36.6 | 49.5 | humanized anti-BCMA antibody Ab1 (antibody, human IgG1, kappa, V domains shown) VH: QVQLVQSGAEVKKPGASVKVSCKASGYSFSDYEMHWVRQAPGQGLEWMGGIHPGSGGSAYNQKFKGRVTMTRDTSTSTVYMELSSLRSEDTAVYYCTRLDYGYSWAWFPYWGQGTLVTVSA VL: EIVLTQSPATLSLSPGERATLSCSASSSVIYMNWYQQKPGQAPRLLIYGISNLASGIPARFSGSGSGTDFTLTISSLEPEDFAVYYCQQRSSYPLTFGGGTKVEIKR
